Experimental data published in the Human Domainome abundance scans (Beltran et al. 2025).
± gives the uncertainty stated by the source.

B1: Probable E3 ubiquitin-protein ligase MID2, residues 191 to 235; numbered along this chain, Q9UJV3 (parent)
chain: RGITCLDHENEKVNMYCVSDDQLICALCKLVGRHRDHQVASLNDR

Variants of: B1
Experiment: abundance fitness (aPCA) (normalised: wild type 0, dead -1); higher = more abundant; growth selection in yeast, the domain comes from the species named
Conditions: Homo sapiens

Row | Variant | abundance fitness
1 | RGITCLDHEDEKVNMYCVSDDQLICALCKLVGRHRDHQVASLNDR [N10D] | -0.072 ± 0.073
2 | RGQTCLDHENEKVNMYCVSDDQLICALCKLVGRHRDHQVASLNDR [I3Q] | -0.181 ± 0.054
3 | RGRTCLDHENEKVNMYCVSDDQLICALCKLVGRHRDHQVASLNDR [I3R] | -0.079 ± 0.046
4 | RGVTCLDHENEKVNMYCVSDDQLICALCKLVGRHRDHQVASLNDR [I3V] | -0.188 ± 0.055
5 | RGSTCLDHENEKVNMYCVSDDQLICALCKLVGRHRDHQVASLNDR [I3S] | -0.081 ± 0.048
6 | RGITCLDHENEKVNMYCVSDDQLICALCKLVGRHRDHQCASLNDR [V39C] | -0.014 ± 0.1
7 | RGITCLDHENEKVNMYCVSDDQLICALCKLVGRHRDHQDASLNDR [V39D] | -0.258 ± 0.071
8 | RGITCLDHENEKVNMYCVSDDQLICALCKLVGRHRDHQLASLNDR [V39L] | -0.079 ± 0.062
9 | RGITCLDHENEKVNMYCVSDDQLICALCKLVGRHWDHQVASLNDR [R35W] | -0.602 ± 0.093
10 | RGITCLDHENEKANMYCVSDDQLICALCKLVGRHRDHQVASLNDR [V13A] | -0.104 ± 0.057
11 | RGITCLDHENESVNMYCVSDDQLICALCKLVGRHRDHQVASLNDR [K12S] | 0.095 ± 0.068
12 | RGITCLDHENEGVNMYCVSDDQLICALCKLVGRHRDHQVASLNDR [K12G] | -0.102 ± 0.05
13 | RGITCLDHENEKVNMYQVSDDQLICALCKLVGRHRDHQVASLNDR [C17Q] | -0.369 ± 0.15
14 | RDITCLDHENEKVNMYCVSDDQLICALCKLVGRHRDHQVASLNDR [G2D] | 0.108 ± 0.085
15 | RMITCLDHENEKVNMYCVSDDQLICALCKLVGRHRDHQVASLNDR [G2M] | -0.081 ± 0.068
16 | RIITCLDHENEKVNMYCVSDDQLICALCKLVGRHRDHQVASLNDR [G2I] | -0.522 ± 0.24
17 | RGITCLDHENEKVNMYCVSDDQLICALCKLVGRHRDHQVESLNDR [A40E] | 0.072 ± 0.069
18 | RGITCLDHENEKVNMYCVSDDQLICALCKLVGRHRDHQVCSLNDR [A40C] | -0.063 ± 0.068
19 | RGITCLDHENEKVNMYCVSDDQLICALCKLVGRHRDHQVWSLNDR [A40W] | -0.155 ± 0.07

Row | Variant | abundance fitness
20 | RGITCLDHENEKVNMYCVSDDQLICALCKLVGRHRDHQVPSLNDR [A40P] | -0.415 ± 0.095
21 | RGITCLDHENEKVNMYCVSDDQLICALCKLVGRHRDHQVNSLNDR [A40N] | -0.082 ± 0.23
22 | RGITCLDHENEKVNMYCVSDDQLICALCKLVGRHRDHQVRSLNDR [A40R] | 0.014 ± 0.052
23 | RGITCLDHENEKVNMYCVSDDQLICALCKLVGRHRDHQVHSLNDR [A40H] | -0.296 ± 0.18
24 | RGITCLDHENEKVNMYCVSDDQEICALCKLVGRHRDHQVASLNDR [L23E] | 0.137 ± 0.077
25 | RGITCLDHENEKVNMYCVSDDQVICALCKLVGRHRDHQVASLNDR [L23V] | 0.006 ± 0.064
26 | RGITCLDHENEKVNMYCVSDDQPICALCKLVGRHRDHQVASLNDR [L23P] | 0.144 ± 0.076
27 | RGITCLDHENEKVNMYCVSDDQLICELCKLVGRHRDHQVASLNDR [A26E] | 0.031 ± 0.081
28 | RGITCLDHENEKVNMYCVSDDQLICTLCKLVGRHRDHQVASLNDR [A26T] | -0.068 ± 0.075
29 | RGITCLDHENEKVNMYCVSDDQLICALCKLVGRHRAHQVASLNDR [D36A] | -0.293 ± 0.085
30 | RGITCLDKENEKVNMYCVSDDQLICALCKLVGRHRDHQVASLNDR [H8K] | -0.533 ± 0.093
31 | RGITCLDFENEKVNMYCVSDDQLICALCKLVGRHRDHQVASLNDR [H8F] | -0.808 ± 0.38
32 | RGITCLDCENEKVNMYCVSDDQLICALCKLVGRHRDHQVASLNDR [H8C] | -0.408 ± 0.089
33 | RGITCLDTENEKVNMYCVSDDQLICALCKLVGRHRDHQVASLNDR [H8T] | -0.555 ± 0.06
34 | RGITHLDHENEKVNMYCVSDDQLICALCKLVGRHRDHQVASLNDR [C5H] | -0.555 ± 0.1
35 | RGITKLDHENEKVNMYCVSDDQLICALCKLVGRHRDHQVASLNDR [C5K] | -0.379 ± 0.097
36 | RGITQLDHENEKVNMYCVSDDQLICALCKLVGRHRDHQVASLNDR [C5Q] | -0.585 ± 0.11
37 | RGIHCLDHENEKVNMYCVSDDQLICALCKLVGRHRDHQVASLNDR [T4H] | -0.071 ± 0.077
38 | RGINCLDHENEKVNMYCVSDDQLICALCKLVGRHRDHQVASLNDR [T4N] | -0.01 ± 0.11

Row | Variant | abundance fitness
39 | RGISCLDHENEKVNMYCVSDDQLICALCKLVGRHRDHQVASLNDR [T4S] | -0.105 ± 0.062
40 | RGITCLDHENEKVNMYCVSDDQLICALCKLVGRHRDHQVASLDDR [N43D] | -0.036 ± 0.12
41 | RGITCLDHENEKVNMYCVSDDQLICALCKLVGRHRDHQVASLMDR [N43M] | -0.252 ± 0.19
42 | RGITCLDHENEKVNMYCVSLDQLICALCKLVGRHRDHQVASLNDR [D20L] | -1.08 ± 0.11
43 | RGITCLDHENLKVNMYCVSDDQLICALCKLVGRHRDHQVASLNDR [E11L] | -0.524 ± 0.074
44 | RGITCLDHENQKVNMYCVSDDQLICALCKLVGRHRDHQVASLNDR [E11Q] | -0.097 ± 0.065
45 | RGITCLDHENGKVNMYCVSDDQLICALCKLVGRHRDHQVASLNDR [E11G] | -0.245 ± 0.043
46 | RGITCLDHENTKVNMYCVSDDQLICALCKLVGRHRDHQVASLNDR [E11T] | -0.223 ± 0.073
47 | RGITCLDHENYKVNMYCVSDDQLICALCKLVGRHRDHQVASLNDR [E11Y] | 0.129 ± 0.45
48 | RGITCLDHENEKVNMYCVSDDQLRCALCKLVGRHRDHQVASLNDR [I24R] | -0.373 ± 0.12
49 | RGITCLDHENEKVNMYCVSDDQLCCALCKLVGRHRDHQVASLNDR [I24C] | -0.436 ± 0.14
50 | RGITCLDHENEKVNMYCVSDDQLICALCKLVGRHRDHMVASLNDR [Q38M] | -0.25 ± 0.085
51 | RGITCLDHENEKVNMYCVSDDQLICALCKLVGRHRDHIVASLNDR [Q38I] | -0.357 ± 0.21
52 | RGITCLDHENEKVNMYCVSDDQLICALCKLVGRHRDHVVASLNDR [Q38V] | 0.005 ± 0.059
53 | RGITCLDHENEKVNMYCVSDDQLICALCKLVGRHRDHGVASLNDR [Q38G] | -0.191 ± 0.052
54 | RGITCLDHENEKVNMYCVSDDQLICALCKLVGRHRDHWVASLNDR [Q38W] | -0.369 ± 0.098
55 | RGITCLDHENEKVNMYCVSDDQLICALCKLVGRHRDHQVATLNDR [S41T] | -0.001 ± 0.062
56 | RGITCLDHENEKVNMYCVSDDQLICALCKLVGRHRDHQVALLNDR [S41L] | -0.157 ± 0.068
57 | RGITCLDHENEKVNMYCVSDDQLICALAKLVGRHRDHQVASLNDR [C28A] | -0.805 ± 0.079
